Target: C4BPα1–2 (His6-tagged fragment of human C4b-binding protein) (human)
Experiment: ITC; 23 °C, PBS; 300 to 500 μM intact M2 or M2G in the syringe, 30 to 50 μM C4BPα1–2 in the cell; single-site model

Substance	Kd	dH	stoichiometry N
M2G (M2_(53)G; M2 aa 53–86 fused to GCN4)	4 µM	-27 kcal/mol	0.51
intact M2 protein (Streptococcus pyogenes, strain AP2) (natural protein)	4 µM	-24 kcal/mol	0.5

From article PMC10400905
